Test results taken from paper PMC3297588.

Biological target: holo-hemoglobin (UniProt P01966)
Assay: SPR

Chain of UniProt P01966 (P01966 whole entry, chain 1 of 2): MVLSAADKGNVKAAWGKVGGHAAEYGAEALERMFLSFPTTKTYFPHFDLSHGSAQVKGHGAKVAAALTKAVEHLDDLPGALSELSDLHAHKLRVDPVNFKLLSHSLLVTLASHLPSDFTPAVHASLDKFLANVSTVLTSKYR
Chain of UniProt P01966 (P02070 whole entry, chain 2 of 2, further chain): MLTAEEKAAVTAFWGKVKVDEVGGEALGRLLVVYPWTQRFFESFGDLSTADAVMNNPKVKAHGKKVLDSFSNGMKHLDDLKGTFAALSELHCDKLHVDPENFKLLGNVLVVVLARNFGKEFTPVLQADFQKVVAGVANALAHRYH

“IsdX1 (amino acids 26-146), wild-type, apo form (domain or fragment)” was tested, and the Kd was 15 nM.
